19 substances from patent US20210024620A1 can be followed below.

Bounds are passed on as bounds.

The target in assay [1] is rat FcRn (rat) (UniProt P13599). In words: Biacore SPR, pH 6.0.
Assay [2] shares this target. Put plainly: Biacore, pH 6.0, apparent KD. A general note: Surface plasmon resonance follows binding to a sensor surface in real time, without labels.
In assay [3] the target is biotinylated human FcRn (human) (UniProt P55899). Put plainly: Biacore SPR, pH 7.4, 1000 nM antibody.
Assay [4] concerns the target rat FcRn (rat) (UniProt P13599). In words: Biacore SPR, pH 7.4, 1000 nM antibody.
For assay [5], the target named is FcRn immobilised on the FcRn affinity column (biotinylated cynoFcRn in one experiment, biotinylated hFcRn in another). Put plainly: FcRn affinity chromatography, linear pH gradient; species of the immobilised FcRn not given.
For assay [6], the target named is rat FcRn (rat) (UniProt P13599). In words: Biacore SPR, pH 7.4.
Assay [7] addresses biotinylated human FcRn (human) (UniProt P55899). Put plainly: Biacore SPR, pH 6.0.
For assay [8] the target is unchanged. In words: Biacore SPR, pH 6.0. The source holds these as a separate data set.
The target is the same in assay [9]. Put plainly: Biacore, pH 6.0, apparent KD.
The target is the same in assay [10]. Put plainly: Biacore SPR, pH 7.4.
Assay [11] shares this target. In words: Biacore, pH 6.0.
Assay [12] concerns the target rat FcRn (rat) (UniProt P13599). In words: Biacore, pH 6.0.
For assay [13], the target named is biotinylated human FcRn (p51 subunit residues 24-297 with C-terminal Avi-tag; beta2-microglobulin residues 21-119) (human) (UniProt P55899). In words: Biacore SPR, pH 6.0.
The target is the same in assay [14]. Put plainly: Biacore SPR, pH 7.4, steady state.
The target of assay [15] is biotinylated human FcRn (human) (UniProt P55899). In words: Biacore, pH 7.4, steady state response.
The target of assay [16] is rat FcRn (rat) (UniProt P13599). In words: Biacore, pH 7.4, steady state response.
Assay [17] addresses biotinylated human FcRn (p51 subunit residues 24-297 with C-terminal Avi-tag; beta2-microglobulin residues 21-119) (human) (UniProt P55899). Put plainly: Biacore; inverse ratio (RU at pH 7.4 over affinity at pH 6.0).
Assay [18] has as its target Human CD16a (FcγRIIIa V158) with C-terminal HPC4 tag (human) (UniProt P08637). Put plainly: Biacore, FcγRIIIa V158 captured, steady-state fit, apparent KD.
Assay [19] deals with biotinylated human FcRn (p51 subunit residues 24-297 with C-terminal Avi-tag; beta2-microglobulin residues 21-119) (human) (UniProt P55899). In words: Biacore; affinity at pH 6.0 (M^-1) over steady state RU at pH 7.4.
For assay [20], the target named is biotinylated human FcRn (human) (UniProt P55899). In words: Biacore, biotin-captured hFcRn, pH 7.4.
For assay [21] the target is unchanged. In words: Biacore, biotin-captured hFcRn, pH 8.0.
Assay [22] deals with biotinylated cynomolgus FcRn (cynomolgus) (UniProt Q8SPV9). Put plainly: Biacore, biotin-captured cFcRn, pH 6.0.
For assay [23] the target is unchanged. Put plainly: Biacore, biotin-captured cFcRn, pH 7.4.
Assay [24] shares this target. Put plainly: Biacore, biotin-captured cFcRn, pH 8.0.
For assay [25], the target named is biotinylated human FcRn (human) (UniProt P55899). Put plainly: Biacore, biotin-captured hFcRn, pH 7.4, 1000 nM antibody.
The target is the same in assay [26]. Put plainly: Biacore, biotin-captured hFcRn, pH 8.0, 1000 nM antibody.
In assay [27] the target is biotinylated cynomolgus FcRn (cynomolgus) (UniProt Q8SPV9). Put plainly: Biacore, biotin-captured cFcRn, pH 7.4, 1000 nM antibody.
The target is the same in assay [28]. Put plainly: Biacore, biotin-captured cFcRn, pH 8.0, 1000 nM antibody.
Assay [29] has the same target. In words: Biacore, biotin-captured cFcRn, pH 9.0, 1000 nM antibody.
For assay [30], the target named is biotinylated human FcRn (human) (UniProt P55899). Put plainly: Biacore, biotin-captured hFcRn, pH 6.0.

Sequence of biotinylated human FcRn (human) (P55899 24-297 limits assumed, chain 1 of 2): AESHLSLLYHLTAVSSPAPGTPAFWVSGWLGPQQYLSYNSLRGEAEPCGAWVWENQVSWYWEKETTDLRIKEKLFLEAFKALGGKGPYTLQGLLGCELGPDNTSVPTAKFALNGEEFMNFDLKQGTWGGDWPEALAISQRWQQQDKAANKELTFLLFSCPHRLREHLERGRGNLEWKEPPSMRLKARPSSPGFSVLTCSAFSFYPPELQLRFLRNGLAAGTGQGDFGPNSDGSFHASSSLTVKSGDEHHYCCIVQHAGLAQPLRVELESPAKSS
Sequence of biotinylated human FcRn (human) (P61769 21-119 limits assumed, chain 2 of 2, further chain): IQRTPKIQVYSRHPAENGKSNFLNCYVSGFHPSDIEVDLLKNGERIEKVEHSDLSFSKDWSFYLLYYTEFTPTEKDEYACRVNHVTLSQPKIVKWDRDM
Sequence of biotinylated human FcRn (p51 subunit residues 24-297 with C-terminal Avi-tag; beta2-microglobulin residues 21-119) (human) (P55899 24-297 limits assumed, chain 1 of 2): as the sequence (P55899 24-297 limits assumed, chain 1 of 2) above
Sequence of biotinylated human FcRn (p51 subunit residues 24-297 with C-terminal Avi-tag; beta2-microglobulin residues 21-119) (human) (P61769 21-119 limits assumed, chain 2 of 2, further chain): as the sequence (P61769 21-119 limits assumed, chain 2 of 2, further chain) above
Sequence of rat FcRn (rat) (P13599 23-298 limits assumed, chain 1 of 2): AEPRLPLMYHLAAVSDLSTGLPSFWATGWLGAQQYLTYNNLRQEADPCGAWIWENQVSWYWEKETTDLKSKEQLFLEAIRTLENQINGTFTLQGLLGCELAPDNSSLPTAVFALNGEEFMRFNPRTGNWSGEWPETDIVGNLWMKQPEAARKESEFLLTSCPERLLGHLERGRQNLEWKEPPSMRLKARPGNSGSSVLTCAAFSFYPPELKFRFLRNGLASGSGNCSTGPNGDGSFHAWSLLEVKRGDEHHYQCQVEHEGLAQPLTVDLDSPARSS
Sequence of rat FcRn (rat) (P07151 21-119 limits assumed, chain 2 of 2, further chain): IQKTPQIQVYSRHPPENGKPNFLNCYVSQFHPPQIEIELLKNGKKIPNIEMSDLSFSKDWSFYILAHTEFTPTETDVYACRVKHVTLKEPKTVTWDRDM
Sequence of Human CD16a (FcγRIIIa V158) with C-terminal HPC4 tag (human) (P08637 17-208 F176V): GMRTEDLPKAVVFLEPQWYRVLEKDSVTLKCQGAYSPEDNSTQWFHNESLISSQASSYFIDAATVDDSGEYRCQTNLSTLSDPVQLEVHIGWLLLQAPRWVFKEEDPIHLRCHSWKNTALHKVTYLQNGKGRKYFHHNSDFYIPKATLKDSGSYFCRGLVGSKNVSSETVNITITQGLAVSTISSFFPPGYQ

Regarding mAb1 K288D (antibody), the Kd with rat FcRn (rat) [1] and with rat FcRn (rat) [2] was 0.149 µM throughout. In addition, the Steady State RU in assay [3] was 3.8 RU; with rat FcRn (rat) [4], 21.9 RU. Besides, in assay [5], the FcRn affinity column elution pH was found to be 7.33 pH.
Turning to mAb1 M252Y (antibody), the Steady State RU with rat FcRn (rat) [6] is 50.5 RU; with rat FcRn (rat) [4], 57.7 RU. Also, the Kd in [7] is > 3 µM; in assay [8], 3.1 µM; with rat FcRn (rat) [1], 0.025 µM; in assay [9], 3.1 µM; with rat FcRn (rat) [2] it was 0.025 µM. The FcRn affinity column elution pH in [5] amounted to 7.88 pH.
With “mAb1 N434F (antibody; other documents disagree on this pair)”, the Steady State RU is 22.2 RU in assay [10] and 20.1 RU in assay [3]. Besides, the Kd in assay [8] and in [9] was 0.165 µM throughout.
Take mAb1 N434P (antibody): the Kd in the assay with rat FcRn (rat) [1] and with rat FcRn (rat) [2] was 0.194 µM in each case. For the same substance, the Steady State RU in assay [3] worked out at 3.5 RU; with rat FcRn (rat) [4], 4.3 RU. In addition, the FcRn affinity column elution pH in [5] was 7.56 pH.
As a reminder, the koff is a measure of how fast the partners let go of each other. The term kon denotes a measure of how fast the partners come together. Read a high kon as fast association. “mAb1 N434Y (antibody; other documents disagree on this pair)”: the koff was 0.05 s⁻¹ in assay [11], 0.05 s⁻¹ in [7] and 0.052 s⁻¹ in [8]. Also, the results for the kon in [11], in [7] and in [8] were 360000 M⁻¹ s⁻¹, 360000 M⁻¹ s⁻¹ and 359000 M⁻¹ s⁻¹, respectively. The Steady State RU in assay [10] was 25.5 RU; in [3], 22.6 RU. The Kd in [8] and in assay [9] was 0.137 µM in each case.
Take mAb1 T256D (antibody): the figures for the Steady State RU with rat FcRn (rat) [6] and in the assay with rat FcRn (rat) [4] were 23.2 RU and 30.4 RU, respectively. The Kd was > 3 µM in assay [7]; 6.7 µM in assay [8]; 0.086 µM in the assay with rat FcRn (rat) [1]; 6.7 µM in assay [9]; 0.086 µM with rat FcRn (rat) [2]. This substance yielded a FcRn affinity column elution pH in assay [5] of 7.82 pH.
Regarding mAb1 T256E (antibody), the Steady State RU in [10] was 4.5 RU; with rat FcRn (rat) [6] it was 17 RU; in [3], 4.8 RU; with rat FcRn (rat) [4], 23 RU. For the same substance, the results for the Kd (in assay [7]; with rat FcRn (rat) [1]; with rat FcRn (rat) [2]) were > 3 µM, 0.113 µM and 0.113 µM, respectively. The FcRn affinity column elution pH in [5] was determined as 7.63 pH.
mAb1 T307A (antibody): the Kd with rat FcRn (rat) [1] and with rat FcRn (rat) [2] was 0.132 µM in each case. The Steady State RU in assay [3] turned out to be 5.2 RU; in the assay with rat FcRn (rat) [4], 23.1 RU. For the same substance, the FcRn affinity column elution pH in [5] worked out at 7.61 pH.
With mAb1 T307F (antibody), the Kd in the assay with rat FcRn (rat) [1] and in the assay with rat FcRn (rat) [2] was 0.131 µM throughout. The Steady State RU in assay [3] was found to be 4.9 RU; in the assay with rat FcRn (rat) [4], 21.9 RU. In assay [5], this substance showed a FcRn affinity column elution pH of 7.61 pH.
On to mAb1 T307M (antibody), for which the Kd with rat FcRn (rat) [1] and in the assay with rat FcRn (rat) [2] was 0.279 µM in each case. Further, the values for the Steady State RU (in [3]; with rat FcRn (rat) [4]) were 4.4 RU and 15.3 RU, respectively. In [5], this substance came in with a FcRn affinity column elution pH of 7.4 pH.
In the case of mAb1 T307Q (antibody), the Steady State RU was 6.6 RU in assay [10], 31.3 RU with rat FcRn (rat) [6], 6.4 RU in assay [3] and 24.3 RU with rat FcRn (rat) [4]. For the same substance, the Kd in assay [7] is > 3 µM; in assay [8], 5.72 µM; with rat FcRn (rat) [1], 0.058 µM; in [9], 5.72 µM; in the assay with rat FcRn (rat) [2] it was 0.058 µM. The same substance showed a FcRn affinity column elution pH in [5] of 7.86 pH.
As for mAb1 T307W (antibody), the Steady State RU in the assay with rat FcRn (rat) [6] worked out at 21.9 RU; in the assay with rat FcRn (rat) [4], 19.2 RU. Further, the Kd in assay [7] was > 3 µM; in assay [8], 8.74 µM; with rat FcRn (rat) [1], 0.111 µM; in assay [9] it was 8.74 µM; with rat FcRn (rat) [2], 0.111 µM. The FcRn affinity column elution pH in [5] is 7.75 pH.
Turning to mAb1 Y436H (antibody), the Kd with rat FcRn (rat) [1] and in the assay with rat FcRn (rat) [2] was 0.131 µM in each case. The Steady State RU in assay [3] amounted to 3.6 RU; in the assay with rat FcRn (rat) [4], 16.3 RU. Moreover, the FcRn affinity column elution pH in assay [5] is 7.33 pH.
As for mAb1 Y436N (antibody), the Kd with rat FcRn (rat) [1] and in the assay with rat FcRn (rat) [2] was 0.233 µM each time. The Steady State RU in assay [3] came to 3.6 RU; with rat FcRn (rat) [4], 17.4 RU. The same substance had a FcRn affinity column elution pH in assay [5] of 7.22 pH.
Consider mAb1 Y436W (antibody), for which the Kd in the assay with rat FcRn (rat) [1] and with rat FcRn (rat) [2] was 1.14 µM each time. For the same substance, the results for the Steady State RU (in [3]; with rat FcRn (rat) [4]) were 3.7 RU and 10.3 RU, respectively. In addition, the FcRn affinity column elution pH in assay [5] turned out to be 7.39 pH.
Take “mAb1 YDQN (M252Y/T256D/T307Q) (antibody)”: the off-rate (koff) in [11] is 0.028 s⁻¹; with rat FcRn (rat) [12] it was 0.0003 s⁻¹. Further, the kon was found to be 250000 M⁻¹ s⁻¹ in assay [11] and 5000 M⁻¹ s⁻¹ with rat FcRn (rat) [12]. For the same substance, the Ka in assay [13] is 8.7e+06 M⁻¹. The Kd in assay [9] was determined as 0.115 µM; with rat FcRn (rat) [2] it was 0.0051 µM; in assay [18], 1.06 µM. Also, the Steady State Binding, pH 7.4 (RU) in assay [14] was 19.8 RU. The Steady State RU in assay [15] worked out at 19.8 RU; with rat FcRn (rat) [16], 65.2 RU. Also, the Ratio (pH 6.0/pH 7.4) in assay [17] turned out to be 2.28e-06; in assay [19] it was 439000. This substance also displayed a FcRn affinity column elution pH in assay [5] of 8.51 pH.
As for “mAb1 YEWY (M252Y/T256E/T307W/N434Y) (antibody)”, the Kd in [20] amounted to 0.061 µM; in assay [21] it was 1.9 µM; in assay [22], 0.0061 µM; in assay [23], 0.063 µM; in assay [24], 1.3 µM. Besides, the Steady State RU turned out to be 141 RU in assay [25]; 245 RU in [26]; 162 RU in [27]; 303 RU in assay [28]; 5.4 RU in [29].
For mAb1 YTTY (M252Y/N434Y) (antibody), the Steady State RU in assay [10] came to 54.1 RU; in the assay with rat FcRn (rat) [6], 67.9 RU; in assay [25], 125 RU; in assay [26], 188 RU; in assay [27] it was 147 RU; in [28], 238 RU. This substance registered a Steady State RU in assay [29] of 1 RU. In addition, the Kd in [8] was found to be 0.00832 µM; in the assay with rat FcRn (rat) [1] it was 0.00026 µM; in [20] it was 0.065 µM; in assay [21] it was 3.3 µM; in assay [22] it was 0.02 µM; in assay [23] it was 0.083 µM. The substance further showed a Kd in assay [24] of 1.3 µM. The substance also came in with a Ka in [13] of 1.2e+08 M⁻¹. In [14], this substance had a Steady State Binding, pH 7.4 (RU) of 54.1 RU.
As for mAb1 wildtype (WT) human IgG1 antibody, the Steady State RU in assay [10] came out at 4.2 RU; with rat FcRn (rat) [6] it was 13 RU; in assay [3], 4.3 RU; in the assay with rat FcRn (rat) [4] it was 12.2 RU; in assay [25] it was 0.2 RU; in assay [26], 0.2 RU. Further, the figures for the Steady State RU in assay [27] and in [28] were 1.5 RU and 1.4 RU, respectively. Moreover, the Kd in assay [7] was 2.38 µM; with rat FcRn (rat) [1], 0.207 µM; in assay [30], 1.3 µM; in assay [22] it was 0.66 µM. The FcRn affinity column elution pH in assay [5] stood at 7.37 pH.
